Patent US20130005646A1 (Novo Nordisk, published 2013)
Starred links: 1 amine or outer side, 2 acyl side, 3 side chain; linkers in the order of their positions; H or OH if unused. Positions of bridges follow the written chain, without caps; N, C: chain ends. *: point of attachment. X1 = (S)‑4‑Carboxy‑4‑(19-carboxynonadecanoylamino)butyryl, O=C(O)CCCCCCCCCCCCCCCCCCC(=O)N[C@@H](CCC(=O)*)C(=O)O; C20 diacid = O=C(O)CCCCCCCCCCCCCCCCCCC(=O)*; γGlu = O=C(O)[C@H](CCC(=O)[*:2])N[*:1]

T1: human amylin 3(a) receptor (human calcitonin receptor + RAMP-3) (human, UniProt P30988 25-474; O60896 24-148)
T1 sequence (looked up) 1: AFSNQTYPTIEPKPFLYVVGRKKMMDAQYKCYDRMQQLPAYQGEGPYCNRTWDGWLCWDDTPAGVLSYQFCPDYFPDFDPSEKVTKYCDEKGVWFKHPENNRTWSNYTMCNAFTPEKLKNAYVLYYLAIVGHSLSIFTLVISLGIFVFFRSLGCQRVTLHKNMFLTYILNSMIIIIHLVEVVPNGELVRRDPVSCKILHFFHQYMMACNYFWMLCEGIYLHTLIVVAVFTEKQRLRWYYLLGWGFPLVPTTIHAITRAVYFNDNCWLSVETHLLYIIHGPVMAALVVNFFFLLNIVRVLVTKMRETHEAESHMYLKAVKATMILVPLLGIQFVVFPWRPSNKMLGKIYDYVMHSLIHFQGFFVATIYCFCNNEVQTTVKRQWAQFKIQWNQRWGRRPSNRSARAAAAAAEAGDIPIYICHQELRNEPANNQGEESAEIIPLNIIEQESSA
T1 sequence (looked up) 2: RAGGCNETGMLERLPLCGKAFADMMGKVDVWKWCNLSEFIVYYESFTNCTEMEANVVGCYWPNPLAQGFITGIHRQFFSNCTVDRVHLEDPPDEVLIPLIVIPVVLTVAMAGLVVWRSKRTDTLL

T2: human calcitonin (a) receptor (human, UniProt P30988 25-474)
T2 sequence (looked up): T1 sequence (looked up) 1

B1: N-alpha-[(S)-4-Carboxy-4-(19-carboxynonadecanoylamino)butyryl]-[His1,Glu14,His17,Arg18,Ala25,Pro26,Ser28,Ser29]-pramlintide (peptide)
peptide: X1-HCNTATCATQRLAEFLHRSSNNFGAPLSSTNVGSNTY-NH2
modifications: disulfide 2-7
SMILES: CC(C)C[C@H](NC(=O)[C@H](CCCNC(=N)N)NC(=O)[C@H](CCC(N)=O)NC(=O)[C@@H](NC(=O)[C@H](C)NC(=O)[C@@H]1CSSC[C@H](NC(=O)[C@H](Cc2c[nH]cn2)NC(=O)CC[C@H](NC(=O)CCCCCCCCCCCCCCCCCCC(=O)O)C(=O)O)C(=O)N[C@@H](CC(N)=O)C(=O)N[C@@H]([C@@H](C)O)C(=O)N[C@@H](C)C(=O)N[C@@H]([C@@H](C)O)C(=O)N1)[C@@H](C)O)C(=O)N[C@@H](C)C(=O)N[C@@H](CCC(=O)O)C(=O)N[C@@H](Cc1ccccc1)C(=O)N[C@@H](CC(C)C)C(=O)N[C@@H](Cc1c[nH]cn1)C(=O)N[C@@H](CCCNC(=N)N)C(=O)N[C@@H](CO)C(=O)N[C@@H](CO)C(=O)N[C@@H](CC(N)=O)C(=O)N[C@@H](CC(N)=O)C(=O)N[C@@H](Cc1ccccc1)C(=O)NCC(=O)N[C@@H](C)C(=O)N1CCC[C@H]1C(=O)N[C@@H](CC(C)C)C(=O)N[C@@H](CO)C(=O)N[C@@H](CO)C(=O)N[C@H](C(=O)N[C@@H](CC(N)=O)C(=O)N[C@H](C(=O)NCC(=O)N[C@@H](CO)C(=O)N[C@@H](CC(N)=O)C(=O)N[C@H](C(=O)N[C@@H](Cc1ccc(O)cc1)C(N)=O)[C@@H](C)O)C(C)C)[C@@H](C)O
B2: N-alpha-[(S)-4-Carboxy-4-(19-carboxynonadecanoylamino)butyryl]-[Glu1,Glu14,His17,Arg18]-pramlintide (peptide)
peptide: {C20 diacid-γGlu}-ECNTATCATQRLAEFLHRSSNNFGPILPPTNVGSNTY-NH2
modifications: disulfide 2-7
SMILES: CC[C@H](C)[C@H](NC(=O)[C@@H]1CCCN1C(=O)CNC(=O)[C@H](Cc1ccccc1)NC(=O)[C@H](CC(N)=O)NC(=O)[C@H](CC(N)=O)NC(=O)[C@H](CO)NC(=O)[C@H](CO)NC(=O)[C@H](CCCNC(=N)N)NC(=O)[C@H](Cc1c[nH]cn1)NC(=O)[C@H](CC(C)C)NC(=O)[C@H](Cc1ccccc1)NC(=O)[C@H](CCC(=O)O)NC(=O)[C@H](C)NC(=O)[C@H](CC(C)C)NC(=O)[C@H](CCCNC(=N)N)NC(=O)[C@H](CCC(N)=O)NC(=O)[C@@H](NC(=O)[C@H](C)NC(=O)[C@@H]1CSSC[C@H](NC(=O)[C@H](CCC(=O)O)NC(=O)CC[C@H](NC(=O)CCCCCCCCCCCCCCCCCCC(=O)O)C(=O)O)C(=O)N[C@@H](CC(N)=O)C(=O)N[C@@H]([C@@H](C)O)C(=O)N[C@@H](C)C(=O)N[C@@H]([C@@H](C)O)C(=O)N1)[C@@H](C)O)C(=O)N[C@@H](CC(C)C)C(=O)N1CCC[C@H]1C(=O)N1CCC[C@H]1C(=O)N[C@H](C(=O)N[C@@H](CC(N)=O)C(=O)N[C@H](C(=O)NCC(=O)N[C@@H](CO)C(=O)N[C@@H](CC(N)=O)C(=O)N[C@H](C(=O)N[C@@H](Cc1ccc(O)cc1)C(N)=O)[C@@H](C)O)C(C)C)[C@@H](C)O
B3: N-alpha-[(S)-4-Carboxy-4-(19-carboxynonadecanoylamino)butyryl]-[His1,Glu14,His17,Arg18,Glu25,Ser28,Arg29]-pramlintide (peptide)
peptide: {C20 diacid-γGlu}-HCNTATCATQRLAEFLHRSSNNFGEILSRTNVGSNTY-NH2
modifications: disulfide 2-7
SMILES: CC[C@H](C)[C@H](NC(=O)[C@H](CCC(=O)O)NC(=O)CNC(=O)[C@H](Cc1ccccc1)NC(=O)[C@H](CC(N)=O)NC(=O)[C@H](CC(N)=O)NC(=O)[C@H](CO)NC(=O)[C@H](CO)NC(=O)[C@H](CCCNC(=N)N)NC(=O)[C@H](Cc1c[nH]cn1)NC(=O)[C@H](CC(C)C)NC(=O)[C@H](Cc1ccccc1)NC(=O)[C@H](CCC(=O)O)NC(=O)[C@H](C)NC(=O)[C@H](CC(C)C)NC(=O)[C@H](CCCNC(=N)N)NC(=O)[C@H](CCC(N)=O)NC(=O)[C@@H](NC(=O)[C@H](C)NC(=O)[C@@H]1CSSC[C@H](NC(=O)[C@H](Cc2c[nH]cn2)NC(=O)CC[C@H](NC(=O)CCCCCCCCCCCCCCCCCCC(=O)O)C(=O)O)C(=O)N[C@@H](CC(N)=O)C(=O)N[C@@H]([C@@H](C)O)C(=O)N[C@@H](C)C(=O)N[C@@H]([C@@H](C)O)C(=O)N1)[C@@H](C)O)C(=O)N[C@@H](CC(C)C)C(=O)N[C@@H](CO)C(=O)N[C@@H](CCCNC(=N)N)C(=O)N[C@H](C(=O)N[C@@H](CC(N)=O)C(=O)N[C@H](C(=O)NCC(=O)N[C@@H](CO)C(=O)N[C@@H](CC(N)=O)C(=O)N[C@H](C(=O)N[C@@H](Cc1ccc(O)cc1)C(N)=O)[C@@H](C)O)C(C)C)[C@@H](C)O
B4: N-alpha-[(S)-4-Carboxy-4-(19-carboxynonadecanoylamino)butyryl]-[des1,Gly3,Glu14,His17,Arg18,Glu31,Gly35]-pramlintide (peptide)
peptide: {C20 diacid-γGlu}-CGTATCATQRLAEFLHRSSNNFGPILPPTEVGSGTY-NH2
modifications: disulfide 1-6
SMILES: CC[C@H](C)[C@H](NC(=O)[C@@H]1CCCN1C(=O)CNC(=O)[C@H](Cc1ccccc1)NC(=O)[C@H](CC(N)=O)NC(=O)[C@H](CC(N)=O)NC(=O)[C@H](CO)NC(=O)[C@H](CO)NC(=O)[C@H](CCCNC(=N)N)NC(=O)[C@H](Cc1c[nH]cn1)NC(=O)[C@H](CC(C)C)NC(=O)[C@H](Cc1ccccc1)NC(=O)[C@H](CCC(=O)O)NC(=O)[C@H](C)NC(=O)[C@H](CC(C)C)NC(=O)[C@H](CCCNC(=N)N)NC(=O)[C@H](CCC(N)=O)NC(=O)[C@@H](NC(=O)[C@H](C)NC(=O)[C@@H]1CSSC[C@H](NC(=O)CC[C@H](NC(=O)CCCCCCCCCCCCCCCCCCC(=O)O)C(=O)O)C(=O)NCC(=O)N[C@@H]([C@@H](C)O)C(=O)N[C@@H](C)C(=O)N[C@@H]([C@@H](C)O)C(=O)N1)[C@@H](C)O)C(=O)N[C@@H](CC(C)C)C(=O)N1CCC[C@H]1C(=O)N1CCC[C@H]1C(=O)N[C@H](C(=O)N[C@@H](CCC(=O)O)C(=O)N[C@H](C(=O)NCC(=O)N[C@@H](CO)C(=O)NCC(=O)N[C@H](C(=O)N[C@@H](Cc1ccc(O)cc1)C(N)=O)[C@@H](C)O)C(C)C)[C@@H](C)O
B5: N-alpha-[(S)-4-Carboxy-4-(19-carboxynonadecanoylamino)butyryl]-[His1,Glu8,Glu14,His17,Arg18]-pramlintide (peptide)
peptide: {C20 diacid-γGlu}-HCNTATCETQRLAEFLHRSSNNFGPILPPTNVGSNTY-NH2
modifications: disulfide 2-7
SMILES: CC[C@H](C)[C@H](NC(=O)[C@@H]1CCCN1C(=O)CNC(=O)[C@H](Cc1ccccc1)NC(=O)[C@H](CC(N)=O)NC(=O)[C@H](CC(N)=O)NC(=O)[C@H](CO)NC(=O)[C@H](CO)NC(=O)[C@H](CCCNC(=N)N)NC(=O)[C@H](Cc1c[nH]cn1)NC(=O)[C@H](CC(C)C)NC(=O)[C@H](Cc1ccccc1)NC(=O)[C@H](CCC(=O)O)NC(=O)[C@H](C)NC(=O)[C@H](CC(C)C)NC(=O)[C@H](CCCNC(=N)N)NC(=O)[C@H](CCC(N)=O)NC(=O)[C@@H](NC(=O)[C@H](CCC(=O)O)NC(=O)[C@@H]1CSSC[C@H](NC(=O)[C@H](Cc2c[nH]cn2)NC(=O)CC[C@H](NC(=O)CCCCCCCCCCCCCCCCCCC(=O)O)C(=O)O)C(=O)N[C@@H](CC(N)=O)C(=O)N[C@@H]([C@@H](C)O)C(=O)N[C@@H](C)C(=O)N[C@@H]([C@@H](C)O)C(=O)N1)[C@@H](C)O)C(=O)N[C@@H](CC(C)C)C(=O)N1CCC[C@H]1C(=O)N1CCC[C@H]1C(=O)N[C@H](C(=O)N[C@@H](CC(N)=O)C(=O)N[C@H](C(=O)NCC(=O)N[C@@H](CO)C(=O)N[C@@H](CC(N)=O)C(=O)N[C@H](C(=O)N[C@@H](Cc1ccc(O)cc1)C(N)=O)[C@@H](C)O)C(C)C)[C@@H](C)O
B6: N-alpha-[(S)-4-Carboxy-4-(19-carboxynonadecanoylamino)butyryl]-[des1,Gly3,Glu14,His17,Arg18,Gln21,Gln22,Glu31,Gly35]-pramlintide (peptide)
peptide: {C20 diacid-γGlu}-CGTATCATQRLAEFLHRSSQQFGPILPPTEVGSGTY-NH2
modifications: disulfide 1-6
SMILES: CC[C@H](C)[C@H](NC(=O)[C@@H]1CCCN1C(=O)CNC(=O)[C@H](Cc1ccccc1)NC(=O)[C@H](CCC(N)=O)NC(=O)[C@H](CCC(N)=O)NC(=O)[C@H](CO)NC(=O)[C@H](CO)NC(=O)[C@H](CCCNC(=N)N)NC(=O)[C@H](Cc1c[nH]cn1)NC(=O)[C@H](CC(C)C)NC(=O)[C@H](Cc1ccccc1)NC(=O)[C@H](CCC(=O)O)NC(=O)[C@H](C)NC(=O)[C@H](CC(C)C)NC(=O)[C@H](CCCNC(=N)N)NC(=O)[C@H](CCC(N)=O)NC(=O)[C@@H](NC(=O)[C@H](C)NC(=O)[C@@H]1CSSC[C@H](NC(=O)CC[C@H](NC(=O)CCCCCCCCCCCCCCCCCCC(=O)O)C(=O)O)C(=O)NCC(=O)N[C@@H]([C@@H](C)O)C(=O)N[C@@H](C)C(=O)N[C@@H]([C@@H](C)O)C(=O)N1)[C@@H](C)O)C(=O)N[C@@H](CC(C)C)C(=O)N1CCC[C@H]1C(=O)N1CCC[C@H]1C(=O)N[C@H](C(=O)N[C@@H](CCC(=O)O)C(=O)N[C@H](C(=O)NCC(=O)N[C@@H](CO)C(=O)NCC(=O)N[C@H](C(=O)N[C@@H](Cc1ccc(O)cc1)C(N)=O)[C@@H](C)O)C(C)C)[C@@H](C)O

How the values were obtained:
[1] = target: T1, human amylin 3(a) receptor (human …); test: cell-based or functional assay
[2] = target: T2, human calcitonin (a) receptor; test: cell-based or functional assay

Binder | Amylin receptor human EC50 [1] [nM] | CTa receptor human EC50 [2] [nM]
B1 | 0.115 | 0.24
B2 | 0.353 | 1.65
B3 | 0.0779 | 0.131
B4 | 0.164 | 0.222
B5 | 0.602 | 4.3
B6 | 0.253 | 0.284
